The record followed here is article PMC6317994 (Cell reports, 2018).

The target of this assay is T1, Flag-tagged N-terminal domain of TET2 (residues 1–1127) (human, UniProt Q6N021 1-1127).
T1 sequence: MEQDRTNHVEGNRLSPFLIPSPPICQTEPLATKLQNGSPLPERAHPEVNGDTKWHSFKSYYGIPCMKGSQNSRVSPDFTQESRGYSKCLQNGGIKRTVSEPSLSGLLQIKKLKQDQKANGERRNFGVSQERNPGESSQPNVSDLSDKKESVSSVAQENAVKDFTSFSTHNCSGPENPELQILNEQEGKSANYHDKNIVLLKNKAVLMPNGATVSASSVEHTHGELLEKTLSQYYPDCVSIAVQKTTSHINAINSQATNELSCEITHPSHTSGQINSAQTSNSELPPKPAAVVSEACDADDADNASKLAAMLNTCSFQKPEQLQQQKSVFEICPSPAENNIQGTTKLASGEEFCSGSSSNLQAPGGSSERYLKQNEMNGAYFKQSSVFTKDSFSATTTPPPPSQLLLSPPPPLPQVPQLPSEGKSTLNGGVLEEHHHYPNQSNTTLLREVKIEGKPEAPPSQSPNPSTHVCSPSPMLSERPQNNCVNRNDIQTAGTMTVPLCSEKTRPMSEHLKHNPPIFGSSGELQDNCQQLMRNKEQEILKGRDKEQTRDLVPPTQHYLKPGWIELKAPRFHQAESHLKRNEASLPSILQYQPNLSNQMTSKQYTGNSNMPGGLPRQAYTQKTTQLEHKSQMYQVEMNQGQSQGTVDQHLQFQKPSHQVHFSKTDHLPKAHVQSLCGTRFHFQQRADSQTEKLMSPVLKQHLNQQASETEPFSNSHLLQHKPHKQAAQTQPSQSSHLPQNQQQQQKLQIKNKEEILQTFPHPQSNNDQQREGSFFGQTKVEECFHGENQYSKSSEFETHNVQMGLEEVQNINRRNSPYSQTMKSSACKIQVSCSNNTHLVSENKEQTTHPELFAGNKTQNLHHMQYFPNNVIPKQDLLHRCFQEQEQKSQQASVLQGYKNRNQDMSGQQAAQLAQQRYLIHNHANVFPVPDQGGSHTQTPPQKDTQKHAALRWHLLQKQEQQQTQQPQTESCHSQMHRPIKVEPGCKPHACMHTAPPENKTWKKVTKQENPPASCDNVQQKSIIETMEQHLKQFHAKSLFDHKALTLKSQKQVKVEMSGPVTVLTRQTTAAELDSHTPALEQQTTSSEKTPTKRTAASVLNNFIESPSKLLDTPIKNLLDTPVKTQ
Kind of assay: pull-down.

B1: SNIP1 purified from E. coli (GST tag removed) (natural protein)
chain: MKAVKSERERGSRRRHRDGDVVLPAGVVVKQERLSPEVAPPAHRRPDHSGGSPSPPTSEPARSGHRGNRARGVSRSPPKKKNKASGRRSKSPRSKRNRSPHHSTVKVKQEREDHPRRGREDRQHREPSEQEHRRARNSDRDRHRGHSHQRRTSNERPGSGQGQGRDRDTQNLQAQEEEREFYNARRREHRQRNDVGGGGSESQELVPRPGGNNKEKEVPAKEKPSFELSGALLEDTNTFRGVVIKYSEPPEARIPKKRWRLYPFKNDEVLPVMYIHRQSAYLLGRHRRIADIPIDHPSCSKQHAVFQYRLVEYTRADGTVGRRVKPYIIDLGSGNGTFLNNKRIEPQRYYELKEKDVLKFGFSSREYVLLHESSDTSEIDRKDDEDEEEEEEVSDS
B1: the binding result was “binds”.
